According to paper PMC5737651:
Where two headings read alike, the source gives them in different places.

Legend:
Assay in all cases: EMSA
[1] = molecular target: F1 (human, UniProt Q9BXW9 1-588)
[2] = molecular target: F3 (human, UniProt Q9BXW9 841-1178)
[3] = molecular target: T1, FANCD2 WT full-length (human, UniProt Q9BXW9 1-1451)
[4] = molecular target: T2, F3Mut1aa (human, UniProt Q9BXW9 841-1178, K865A)
[5] = molecular target: T3, F4 (human, UniProt Q9BXW9 1179-1451)
[6] = molecular target: T4, F1Mut5aa (K-A) (human, UniProt Q9BXW9 1-588, S29A;K30A;K31A;T32A;K34A)
T4 sequence (Q9BXW9 1-588 S29A/K30A/K31A/T32A/K34A): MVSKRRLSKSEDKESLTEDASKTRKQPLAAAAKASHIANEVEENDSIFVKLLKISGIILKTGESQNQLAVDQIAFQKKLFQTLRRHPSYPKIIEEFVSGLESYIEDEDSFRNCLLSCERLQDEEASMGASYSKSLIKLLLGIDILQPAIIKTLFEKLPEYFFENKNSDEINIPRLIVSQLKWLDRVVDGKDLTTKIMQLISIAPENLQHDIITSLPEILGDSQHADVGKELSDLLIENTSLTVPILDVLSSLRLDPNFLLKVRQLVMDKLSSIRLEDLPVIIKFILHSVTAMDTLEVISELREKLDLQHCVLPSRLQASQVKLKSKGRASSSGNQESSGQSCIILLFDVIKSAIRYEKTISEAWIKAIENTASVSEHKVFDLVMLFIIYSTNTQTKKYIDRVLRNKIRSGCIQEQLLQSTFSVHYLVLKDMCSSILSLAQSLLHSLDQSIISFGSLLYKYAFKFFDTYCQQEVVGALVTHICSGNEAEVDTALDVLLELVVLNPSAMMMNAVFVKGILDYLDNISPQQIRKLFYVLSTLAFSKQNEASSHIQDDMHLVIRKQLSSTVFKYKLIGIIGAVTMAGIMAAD

[7] = molecular target: T5, F2 (human, UniProt Q9BXW9 589-840)
T5 sequence (Q9BXW9 589-840): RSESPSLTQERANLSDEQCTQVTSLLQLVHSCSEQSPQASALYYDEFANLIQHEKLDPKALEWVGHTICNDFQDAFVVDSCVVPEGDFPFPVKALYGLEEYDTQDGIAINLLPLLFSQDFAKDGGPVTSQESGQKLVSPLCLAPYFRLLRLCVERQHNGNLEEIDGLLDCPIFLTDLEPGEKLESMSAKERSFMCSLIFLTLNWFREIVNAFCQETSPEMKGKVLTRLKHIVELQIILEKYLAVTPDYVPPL

[8] = molecular target: T1, FANCD2 WT full-length; remark: listed apart in the source
[9] = molecular target: T2, F3Mut1aa; remark: listed apart in the source
[10] = molecular target: T3, F4; remark: listed apart in the source
[11] = molecular target: T4, F1Mut5aa (K-A); remark: listed apart in the source
[12] = molecular target: T5, F2; remark: listed apart in the source

T3 sequence (Q9BXW9 1179-1451): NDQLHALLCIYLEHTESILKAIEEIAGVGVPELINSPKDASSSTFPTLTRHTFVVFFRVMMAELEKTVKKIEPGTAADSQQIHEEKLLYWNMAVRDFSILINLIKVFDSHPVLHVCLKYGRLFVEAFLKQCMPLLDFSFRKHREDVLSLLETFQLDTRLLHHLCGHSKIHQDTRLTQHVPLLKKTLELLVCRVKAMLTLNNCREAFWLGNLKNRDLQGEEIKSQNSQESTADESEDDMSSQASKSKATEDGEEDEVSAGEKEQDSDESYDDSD
T2 sequence (Q9BXW9 841-1178 K865A): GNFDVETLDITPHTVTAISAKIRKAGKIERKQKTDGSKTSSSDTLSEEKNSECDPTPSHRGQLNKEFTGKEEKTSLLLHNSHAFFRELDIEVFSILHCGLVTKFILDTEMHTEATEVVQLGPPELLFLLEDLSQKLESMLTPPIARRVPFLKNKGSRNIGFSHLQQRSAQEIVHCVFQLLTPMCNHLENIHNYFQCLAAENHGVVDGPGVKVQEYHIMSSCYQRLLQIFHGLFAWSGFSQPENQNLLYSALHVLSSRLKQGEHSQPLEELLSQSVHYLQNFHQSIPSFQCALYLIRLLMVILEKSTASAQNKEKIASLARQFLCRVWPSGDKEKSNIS
T1 sequence (Q9BXW9 whole entry): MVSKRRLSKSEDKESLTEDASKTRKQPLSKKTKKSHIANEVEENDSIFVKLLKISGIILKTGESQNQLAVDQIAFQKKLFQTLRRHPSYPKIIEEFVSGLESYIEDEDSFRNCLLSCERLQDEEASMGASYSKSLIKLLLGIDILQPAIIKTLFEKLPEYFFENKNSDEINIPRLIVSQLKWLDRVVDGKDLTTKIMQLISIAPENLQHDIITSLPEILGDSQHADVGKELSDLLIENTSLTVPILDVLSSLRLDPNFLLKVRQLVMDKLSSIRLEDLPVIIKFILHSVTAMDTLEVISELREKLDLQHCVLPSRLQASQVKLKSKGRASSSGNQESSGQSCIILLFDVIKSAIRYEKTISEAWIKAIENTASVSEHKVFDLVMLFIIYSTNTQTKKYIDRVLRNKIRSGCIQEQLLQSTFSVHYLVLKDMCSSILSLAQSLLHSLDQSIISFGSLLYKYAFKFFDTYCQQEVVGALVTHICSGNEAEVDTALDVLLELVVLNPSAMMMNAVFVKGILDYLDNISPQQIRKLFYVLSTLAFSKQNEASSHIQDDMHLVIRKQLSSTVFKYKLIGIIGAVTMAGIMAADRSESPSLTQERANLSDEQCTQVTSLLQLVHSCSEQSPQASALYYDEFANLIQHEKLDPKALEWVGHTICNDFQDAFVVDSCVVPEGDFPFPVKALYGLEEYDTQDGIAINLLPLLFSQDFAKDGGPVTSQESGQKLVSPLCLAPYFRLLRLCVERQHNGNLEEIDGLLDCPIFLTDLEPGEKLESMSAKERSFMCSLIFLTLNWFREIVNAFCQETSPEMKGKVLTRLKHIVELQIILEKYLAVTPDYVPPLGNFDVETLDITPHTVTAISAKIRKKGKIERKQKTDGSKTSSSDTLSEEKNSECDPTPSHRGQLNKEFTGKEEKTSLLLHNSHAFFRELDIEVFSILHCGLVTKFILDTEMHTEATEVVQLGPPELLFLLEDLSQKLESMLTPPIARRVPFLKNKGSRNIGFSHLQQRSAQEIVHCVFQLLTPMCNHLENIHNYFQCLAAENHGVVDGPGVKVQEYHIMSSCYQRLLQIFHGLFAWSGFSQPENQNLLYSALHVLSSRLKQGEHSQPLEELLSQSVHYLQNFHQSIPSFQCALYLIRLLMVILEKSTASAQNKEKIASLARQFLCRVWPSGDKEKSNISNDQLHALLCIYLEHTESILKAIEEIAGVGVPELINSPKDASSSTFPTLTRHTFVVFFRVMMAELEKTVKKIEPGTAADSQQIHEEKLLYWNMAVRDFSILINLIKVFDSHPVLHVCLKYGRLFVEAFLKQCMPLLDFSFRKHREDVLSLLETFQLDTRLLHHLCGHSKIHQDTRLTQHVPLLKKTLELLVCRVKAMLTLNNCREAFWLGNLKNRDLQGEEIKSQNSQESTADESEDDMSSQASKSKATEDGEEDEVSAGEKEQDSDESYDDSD
Chain of F3 (Q9BXW9 841-1178): as the sequence (Q9BXW9 841-1178 K865A) above, with A25K counted along it
Chain of F1 (Q9BXW9 1-588): as the sequence (Q9BXW9 1-588 S29A/K30A/K31A/T32A/K34A) above, with A29S, A30K, A31K, A32T, A34K counted along it

B1: ssDNA (SS) (ssDNA)
DNA: GGGTGAACCTGCAGGTGGGCAAAGATGTCCTAGCAATGTAATCGTCAAGCTTTATGCCGT
B1: binds [1]; binds [2]; binds [3]. B1: no binding [4]; no binding [5]; no binding [6]. B1: no binding [7].

B2: Holliday junction (HJ) (structured_DNA)
DNA 1: B1 DNA
DNA 2: ACGCTGCCGAATTCTACCAGTGCCAGCGACGGACATCTTTGCCCACCTGCAGGTTCACCC
DNA 3: ACGGCATAAAGCTTGACGATTACATTGCTACATGGAGCTGTCTAGAGGATCCGACTATCG
DNA 4: CGATAGTCGGATCCTCTAGACAGCTCCATGGTCGCTGGCACTGGTAGAATTCGGCAGCGT
B2: binds [8]; no binding [9]; no binding [10]. B2: no binding [11]; no binding [12].
